{
  "source": "patent US20220204643A1",
  "about": "(published 2022)",
  "binders": {"B1": {"name": "TTES1006 (antibody, V domains shown)", "VH": "EVQLVESGGGLVQPGGSLRLSCAASGFTFSKFWMHWVRQAPGKGLVWLSRINTDGTVTTYADSVKGRFTISRDNAKSTLYLQMNSLRVEDTAVYYCAGGGSQVDFWGQGTLVTVSS", "VL": "PYELTQPPSVSVSPGQTASIACSGDNLGNKYAWWYRQKPGQSPVLVMYKDNKRPSGIPERFSGSNSGNTATLTISGTQAMDEADYYCQTWDSSTVIFGGGTKLTVQ"}, "B2": {"name": "TSTO1005 (antibody, V domains shown)", "VH": "EVQLVESGGGVVQPGGSLRLSCAASGFTFEDFGMHWVRQAPGKGLEWVAFTRFDGSEKYYVDSVKGRFTVSRDNSKNTLFLHMNSLRPEDTAVYYCAKTRSYSSADTTRPNAPGYWGQGTLVTVSS", "VL": "not shown"}, "B3": {"name": "TTES1003 (antibody, V domains shown)", "VH": "VVQLVESGGGLVQPGGSLRLSCSASGFTFSSYAMHWVRQAPGKGLEYVSAISSNGGSTYYADSVKGRFTISRDNSKNTLYLQMSSLRAEDTAVYYCVKSPVAANDAFDIWGQGTMVTVSS", "VL": "not shown"}, "B4": {"name": "TSTO1003 (antibody, V domains shown)", "VH": "QVQLKQSGGGVVQPGRSLTLSCVASGLTFSDYGMHWVRQAPGKGLEWVAVIWHDGSKTNYADSVKGRIIISRDNSKSTVYLQMNRLRGEDTAVYYCATSHGGLVPGGENYWGQGTLVTVSS", "VL": "SDELTQPPSVSVSPGQTARITCSGDALAKEYAYWYQQKSGQAPVLVISKDTERPSGIPARFSGSSSGTTVTLTISGVQSDDEADYYCQSADSSLTYWLFGGGTKLTVLR"}, "B5": {"name": "TSTO1004 (antibody, V domains shown)", "VH": "QVQLVQSGSELKKPGASVKVSCTSSGYVFTSFGVSWVRQVPGQGPEWMGWISPYTRQTKYAQSLQGRITLTADTSTNTTYMELRSLRSDDTAMYYCVREEFGVVRGPNPFDVWGQGTMVTVSS", "VL": "DIQMTQAPSTLSASVGDRVSITCRASQNIRDFLAWYQQKPGRAPDLLIYRASTLEKGVSARFSGSGSGTEFTLTITGLQPDDFATYYCQQYSDYSTFGGGTRVEIK"}, "B6": {"name": "TSTO1002 (antibody, V domains shown)", "VH": "EVQLVESGGGLVKPGGSLRLSCAASGFTFSNAWMNWVRQTPGKGLEWVGRIKTKTDGGTTDYAEPVKGRFTISRDDSKNTLYLQMNSLKTEDTAVYYCTRGAVADYWGQGTQVTVSS", "VL": "not shown"}, "B7": {"name": "TSTO1008 (antibody, V domains shown)", "VH": "AVQLVQSGAEVKKPGESLRISCKGSGYSFSTYWIIWVRQMPGKGLEWIGRFDPSDSYNVNSPSFQGHVTISADTSINTAYLQWSSLKASDSAMYYCARRSDKAVPGTFDQWGQGTLVTVSS", "VL": "RSVLTQPPSVSAAPGQKVIISCSGSSSNIGNNYVSWYQQFLGTAPKLLIYDTDKRPSGIPDRFSGSKSGTSATLGITGLQTGDEAHYYCATWDSSLRAGPVVFGGGTKLTVLG"}, "B8": {"name": "TTES1002 (antibody, V domains shown)", "VH": "QVQLQESGPGLVKPSETLSLICTVSGASVNSGTHFWSWIRQPPGKGLEWIGYVYYSGNTNYNPSLKSRVAISVDTSKNQFSLKLTSVTSADTAVYYCARDFDDGYDIRYWGQGTRVSVSS", "VL": "QSALTQPASVSGSPGQSITISCTGSSNDIGRYKYVSWFQHHPGRAPKLIIYEVNNRPSGLSHRFSGSKSGNTASLTISGLQAEDEADYYCCSYTSSLTYVFGTGTAVTVL"}, "B9": {"name": "TTES1004 (antibody, V domains shown)", "VH": "EVQLVESGGGLVQPGGSLRLSCVASGFTFSSYSMNWVRQAPGKGLKWVSYISSSRSTIYNADSVKGRFTISRDNAKKSLYLQMNSLRAEDTAVYYCARVSVAAPTCLDYWGQGTLVTVSS", "VL": "not shown"}, "B10": {"name": "TSTO1010 (antibody, V domains shown)", "VH": "EVQLVESGGGLVKPRGSLRLSCAASGFTFSAYGMNWVRQAPGKGLEWVSSISGDSRDIYYGASMKGRFTISRDNAKSSLYLQMNSLRAEDTAVYYCARGEGGELWAFDYWGLGVLVTVSS", "VL": "not shown"}},
  "key": {"[1]": {"biological_target": "T1, acyl-CoA binding domain containing 6 (human, UniProt Q9BR61 1-282)", "T1 construct": "also called ACBD6", "T1 sequence": "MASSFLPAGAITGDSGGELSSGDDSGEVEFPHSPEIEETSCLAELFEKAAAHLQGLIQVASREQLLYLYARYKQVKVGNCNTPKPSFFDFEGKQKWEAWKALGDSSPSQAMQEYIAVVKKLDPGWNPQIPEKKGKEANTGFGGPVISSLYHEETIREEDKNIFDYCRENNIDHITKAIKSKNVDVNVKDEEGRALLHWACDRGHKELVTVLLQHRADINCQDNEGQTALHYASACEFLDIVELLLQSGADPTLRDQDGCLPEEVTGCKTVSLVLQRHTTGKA"}, "[2]": {"biological_target": "T2, cyclin dependent kinase 2 associated protein 2, transcript variant 1 (human, UniProt O75956 1-126)", "T2 construct": "also called CDK2AP2", "T2 sequence": "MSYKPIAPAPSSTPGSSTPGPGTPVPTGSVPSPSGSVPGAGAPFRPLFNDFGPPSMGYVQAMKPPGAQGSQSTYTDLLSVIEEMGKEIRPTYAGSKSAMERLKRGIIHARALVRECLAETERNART"}, "[3]": {"biological_target": "T3, NFKB inhibitor beta, transcript variant 1 (human, UniProt Q15653 1-356)", "T3 construct": "also called NFKBIB", "T3 sequence": "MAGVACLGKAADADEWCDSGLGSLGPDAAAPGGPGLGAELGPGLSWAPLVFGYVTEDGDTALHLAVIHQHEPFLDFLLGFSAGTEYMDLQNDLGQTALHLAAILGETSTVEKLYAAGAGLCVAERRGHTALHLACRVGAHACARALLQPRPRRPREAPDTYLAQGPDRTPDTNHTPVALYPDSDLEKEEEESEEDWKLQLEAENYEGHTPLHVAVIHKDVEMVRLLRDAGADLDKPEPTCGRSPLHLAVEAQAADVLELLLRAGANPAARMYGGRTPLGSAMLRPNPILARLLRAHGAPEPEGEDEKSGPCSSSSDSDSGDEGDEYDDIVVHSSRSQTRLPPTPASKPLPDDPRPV"}, "programmed cell death 1": {"biological_target": "T4, programmed cell death 1 (human, UniProt Q15116 25-288, limits assumed)", "T4 construct": "also called PDCD1", "T4 sequence (Q15116 25-288 limits assumed)": "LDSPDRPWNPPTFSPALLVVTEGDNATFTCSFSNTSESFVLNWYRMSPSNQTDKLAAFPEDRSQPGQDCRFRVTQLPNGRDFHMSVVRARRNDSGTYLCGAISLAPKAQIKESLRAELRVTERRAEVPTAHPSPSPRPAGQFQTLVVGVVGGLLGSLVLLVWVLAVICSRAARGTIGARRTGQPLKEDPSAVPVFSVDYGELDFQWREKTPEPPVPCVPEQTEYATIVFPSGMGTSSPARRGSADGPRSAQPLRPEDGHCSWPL"}, "[4]": {"biological_target": "T5, Transforming growth factor beta 3 (human, UniProt P10600 24-412)", "T5 construct": "also called TGFB3", "T5 sequence": "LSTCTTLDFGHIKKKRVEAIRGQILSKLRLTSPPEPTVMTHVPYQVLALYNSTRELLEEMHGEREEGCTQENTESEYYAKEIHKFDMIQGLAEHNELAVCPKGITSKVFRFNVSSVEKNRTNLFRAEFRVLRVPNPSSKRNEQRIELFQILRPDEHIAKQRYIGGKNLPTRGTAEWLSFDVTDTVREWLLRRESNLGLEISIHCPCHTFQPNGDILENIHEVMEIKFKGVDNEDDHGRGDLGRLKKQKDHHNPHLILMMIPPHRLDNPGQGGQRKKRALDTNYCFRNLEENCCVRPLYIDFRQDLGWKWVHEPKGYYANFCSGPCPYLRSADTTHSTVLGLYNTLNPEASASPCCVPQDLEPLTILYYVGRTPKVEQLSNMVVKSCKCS"}, "chymotrypsinogen B2": {"biological_target": "T6, chymotrypsinogen B2 (human, UniProt Q6GPI1 19-263, limits assumed)", "T6 construct": "also called CTRB2", "T6 sequence (Q6GPI1 19-263 limits assumed)": "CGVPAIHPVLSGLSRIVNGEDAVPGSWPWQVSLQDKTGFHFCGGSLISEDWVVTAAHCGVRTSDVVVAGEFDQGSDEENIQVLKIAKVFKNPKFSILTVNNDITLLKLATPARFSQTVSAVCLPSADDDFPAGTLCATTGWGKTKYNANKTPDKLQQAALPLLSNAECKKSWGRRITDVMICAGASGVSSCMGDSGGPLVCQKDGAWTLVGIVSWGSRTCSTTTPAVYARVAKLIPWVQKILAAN"}, "[5]": {"biological_target": "T7, HAUS augmin like complex subunit 1, transcript variant 1 (human, UniProt Q96CS2 1-278)", "T7 construct": "also called HAUS1", "T7 sequence": "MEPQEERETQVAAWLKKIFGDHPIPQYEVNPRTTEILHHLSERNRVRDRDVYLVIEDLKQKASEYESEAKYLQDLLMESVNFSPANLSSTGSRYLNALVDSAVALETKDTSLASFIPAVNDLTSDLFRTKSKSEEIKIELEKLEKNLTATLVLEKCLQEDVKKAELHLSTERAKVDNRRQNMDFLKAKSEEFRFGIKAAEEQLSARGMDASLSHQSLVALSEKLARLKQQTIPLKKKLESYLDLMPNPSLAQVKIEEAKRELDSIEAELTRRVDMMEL"}, "[6]": {"biological_target": "T8, transforming growth factor beta induced (human, UniProt Q15582 24-683, limits assumed)", "T8 construct": "also called TGFBI", "T8 sequence": "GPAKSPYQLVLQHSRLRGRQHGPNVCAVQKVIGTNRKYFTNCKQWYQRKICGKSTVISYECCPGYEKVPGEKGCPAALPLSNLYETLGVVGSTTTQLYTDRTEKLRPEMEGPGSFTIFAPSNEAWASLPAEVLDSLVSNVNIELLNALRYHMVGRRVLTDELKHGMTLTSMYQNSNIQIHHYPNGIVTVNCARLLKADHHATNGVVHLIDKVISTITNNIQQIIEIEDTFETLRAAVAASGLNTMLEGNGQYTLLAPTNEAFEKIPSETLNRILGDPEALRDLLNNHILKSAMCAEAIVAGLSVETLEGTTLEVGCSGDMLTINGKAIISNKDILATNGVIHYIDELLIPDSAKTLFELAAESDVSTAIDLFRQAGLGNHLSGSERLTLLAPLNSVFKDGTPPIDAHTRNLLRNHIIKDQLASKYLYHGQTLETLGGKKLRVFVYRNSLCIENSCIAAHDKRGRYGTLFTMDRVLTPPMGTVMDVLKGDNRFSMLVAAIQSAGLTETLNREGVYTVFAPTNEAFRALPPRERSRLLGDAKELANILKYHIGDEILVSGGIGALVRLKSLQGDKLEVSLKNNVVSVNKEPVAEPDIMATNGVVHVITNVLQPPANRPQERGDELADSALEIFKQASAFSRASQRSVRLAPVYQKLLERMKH"}, "[7]": {"biological_target": "T9, phosphoglucomutase 2 like 1 (human, UniProt Q6PCE3 1-622 at identity 1.00), limits assumed)", "T9 construct": "also called PGM2L1", "T9 sequence": "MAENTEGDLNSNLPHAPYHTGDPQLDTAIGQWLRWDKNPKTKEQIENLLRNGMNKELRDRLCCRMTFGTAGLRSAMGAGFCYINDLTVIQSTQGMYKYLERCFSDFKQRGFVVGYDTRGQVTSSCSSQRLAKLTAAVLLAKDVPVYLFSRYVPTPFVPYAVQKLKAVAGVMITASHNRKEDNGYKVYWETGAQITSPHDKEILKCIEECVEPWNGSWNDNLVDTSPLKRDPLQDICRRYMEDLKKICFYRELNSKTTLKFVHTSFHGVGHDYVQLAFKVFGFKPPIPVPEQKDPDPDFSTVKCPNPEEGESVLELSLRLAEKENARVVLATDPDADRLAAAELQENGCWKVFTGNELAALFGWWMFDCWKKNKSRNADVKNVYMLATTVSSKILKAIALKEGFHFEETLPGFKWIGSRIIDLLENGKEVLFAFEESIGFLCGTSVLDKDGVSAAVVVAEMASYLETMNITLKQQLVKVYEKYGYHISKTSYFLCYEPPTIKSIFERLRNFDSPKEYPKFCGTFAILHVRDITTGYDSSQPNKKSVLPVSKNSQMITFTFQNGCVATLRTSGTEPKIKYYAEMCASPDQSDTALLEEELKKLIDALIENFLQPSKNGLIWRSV"}, "[8]": {"biological_target": "T10, glyoxylate and hydroxypyruvate reductase (human, UniProt Q9UBQ7 1-328)", "T10 construct": "also called GRHPR", "T10 sequence": "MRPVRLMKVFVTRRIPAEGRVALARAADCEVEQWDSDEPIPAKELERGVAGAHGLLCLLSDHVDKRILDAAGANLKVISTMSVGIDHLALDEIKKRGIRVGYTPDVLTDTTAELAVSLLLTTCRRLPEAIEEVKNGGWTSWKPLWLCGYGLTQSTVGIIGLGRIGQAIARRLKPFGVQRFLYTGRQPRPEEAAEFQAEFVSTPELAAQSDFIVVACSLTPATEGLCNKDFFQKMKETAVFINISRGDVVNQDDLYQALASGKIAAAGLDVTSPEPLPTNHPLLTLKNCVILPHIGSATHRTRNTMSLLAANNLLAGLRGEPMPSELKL"}, "[9]": {"biological_target": "BCL2 apoptosis regulator, transcript variant alpha (human, UniProt P10415 1-239)", "sequence (P10415 whole entry, change not shown)": "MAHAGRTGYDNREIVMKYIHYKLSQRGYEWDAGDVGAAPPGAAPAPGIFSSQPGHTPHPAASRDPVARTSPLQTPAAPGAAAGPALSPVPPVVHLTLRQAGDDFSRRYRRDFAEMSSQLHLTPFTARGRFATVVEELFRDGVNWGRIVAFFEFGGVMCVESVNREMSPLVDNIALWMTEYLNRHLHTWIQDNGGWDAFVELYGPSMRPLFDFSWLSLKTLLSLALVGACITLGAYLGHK"}},
  "data": [
    {"binder": "B1", "values": [
      {"measurement": "binding result", "setting": "[1]", "result": "binds"}
    ]},
    {"binder": "B2", "values": [
      {"measurement": "binding result", "setting": "[2]", "result": "binds"},
      {"measurement": "binding result", "setting": "[3]", "result": "binds"}
    ]},
    {"binder": "B3", "values": [
      {"measurement": "binding result", "setting": "programmed cell death 1", "result": "binds"}
    ]},
    {"binder": "B4", "values": [
      {"measurement": "binding result", "setting": "[4]", "result": "binds"}
    ]},
    {"binder": "B5", "values": [
      {"measurement": "binding result", "setting": "chymotrypsinogen B2", "result": "binds"}
    ]},
    {"binder": "B6", "values": [
      {"measurement": "binding result", "setting": "[5]", "result": "binds"}
    ]},
    {"binder": "B7", "values": [
      {"measurement": "binding result", "setting": "[6]", "result": "binds"}
    ]},
    {"binder": "B8", "values": [
      {"measurement": "binding result", "setting": "[7]", "result": "binds"}
    ]},
    {"binder": "B9", "values": [
      {"measurement": "binding result", "setting": "[8]", "result": "binds"}
    ]},
    {"binder": "B10", "values": [
      {"measurement": "binding result", "setting": "[9]", "result": "binds"}
    ]}
  ]
}
